Assay results from the DeepSol protein solubility set.

Experiment: soluble on expression in E. coli; label from the status in PepcDB or PDB records

Row | Sequence | soluble on expression in E. coli
1 | GPGSMPNEKAQTLTVAEAFAETSKALQQFNIERIRVDGLSRGNACDEEKFRMLTEQEFMREFVFHSRPCIIVGALCDWPALQRWRDDRYLFDLDEKLPMVYEKERTSKGNGEINENDSFHEDEEIVTESDAEDSKNGTSNNEAESQGTLGPRRVTVALTPNGRADAVTYVTYNAVKNESQVHDKLEGKSDFVVTEKLFMSAAELRVTLPELYRLLRANPLVPPLKSQFVDLRRPQRSIAYAQMQNNCLAEEYQHLHADIDTALDRFGTRVFGGKREAANIWLGTPASVSSMHQDWVENLYAVVRGVKEFILVPPWEGVFVPKPELPAAAFTLKAAANCKEGEEEYIFSDSPTRDGTSVPWMDVELTPAAVDDPLHIKEELRDKLHPLIAYVQPGEVLYLPALWLHRVAQHADSEDSRVIEEASTEEIAKVSRHDQKHSAPLPLIAAVNYWYDMSFTNPAVVMLREFGLLL | not soluble
2 | GPGSMPQPSALQSARSFLGTVAEDSVRCDRGLDSVPHNEAGLRCLAADGNWSAVAELAERLSAAATEETAEGLSRRLQFILVQVTANFHMQRYNVAKKLVESLGDLNSERYIDPKTSESTVPFSLRFISAIIPLYIGTKMDSQQRLYALLRDCRENLGKYASAVWVARIKRVQRALVVSHYQVEQYSEALRIYNELIAVEGNADGDDMGSYALLRRMLHLHQFAALALFCGNASFANSIYQSIASINVSEAAPCVQNFHECLVDFNTGIWLSFNGKVQDSMKVFCDVATKSREYYCALGASQLMSTDVPTVSNRQLKFVADGCDALALSELCRHAFHQLLVNATTSHVVTMPYEALRGKAPATMLGGTIRTMEDYLRNDPAGLLSSDAFISNGVRLYTLEGGTQMRRLELLNDLIEVFRCDRASAPPIDKIV | not soluble
3 | GPGSMPRCTTLPLSSFPSLLTFMTVCAASSSPPLPRFRVAHLCRRGKDCLALARSLSLPIVEGAEGGGGRCGCSEWRREGAGERCSVFYLSLPASNFMCINFASPLHLRSPGARHIDVQDVPMERNTLQVVASAVNAEALSGAEDHACHASPVHRVYRLRDACTTLQLILLAYKYRRCSAHSMTVAMFVEACAYDLVQGVRVLESAPLSSSPGHDSSGDAIATLEAPWFYIGSEAGGDVRVYLLLPTYADYFLDYTMHWARVAYSEMARQYVGHSLIAKLQTVGGGWASLHRADKSLACALQLHAVAQAVFDEDVVRKCRLFIGWAHLWNSEPAKALEVFYAELAAARRHGDTIQERRCLHAIQNAEHNPRLAPGGAHTGHYQLVNLWWRALA | soluble
4 | GPGSMPSAPTSVTAVVQLPPLIDCHVHFREPGLEHKADIASESTAAYYGGITVACDMPNTSPPTQSVAALADKVARAKATAHAHCQLFFFFGATAEAHLQELEELWTNPAHAELKTHCCGLKLYLDNSTGNMKSSLSVVEKSFEMCGRLQIVLVAHCEQSEINDAAAAQHPYDGPASHSLRRPADSEAASVQSAIALARQCRTPLHLAHVSTAQSLDLIREARAADPTLQLTCEVTPHHLFLTTSDYSCCGARVKVNPPVRPPQHHEALWAGLLDGTVDCVGTDHAPHTIAEKDHCDAAAQPPSGMPAIEVVVPLLLTVVAGQWPHPTAAKPSALAAAEHQGRTLTLDDVVRVLHTNPNRIFNLRQPDAPHRSFDLACEWTVRGEELHSKCQWTPYEGWRLRGRVLANE | soluble
5 | GPGSMQEEAISSAATGVGHVMVTFFTDSYAKAMPEESYAVPLNVLPEGLNVLVQSVLSVNDQVFDFLYNGEYITTTLQKFLSRRGVSTEELVNVEYTPALQAKESSHLPHDDWVSSVRVPFVGHSELLLTGSYDRCIRLWDADDCVAIGAHHDECVKEVVVHPMKPRSTATNTTRDSVKKRARSSLLEDFYCVSCSKDGRAAAWVFNATASKFQLLSSVKAHTDAIESIDISPGAGKYVATASWDCTVKVFEWSQVVDGATEPSAKEPLVSFTDHTRPALSCRFSAAKGAALLYSSGLDGTLKCMDVETAVLQKQYIGDHPVQGLAVRTVGGGGGGDLIIAACTDNRARLYDTRVGESTGSVKVFSGHKQWLYAASWLWRPDEGEVNGGNFFATASEDSTVRLWDLRCGTNALLTLDTSHTDGVLDVTYSGNGEIVSCGKDNSTKSFQCFKGDSLLN | not soluble
6 | GPGSMRLTSRGSHNSSQVVYLLDTREFITDCSTVRQVTHFAHVHRLGSPLWLSCELASALGLTLRYMCSPLNIWSPLTGESFVQLASSPALARDTLYKFPINKEFLAPGGVLPHNSGEGSLMALSAAASSDGKPRWYNIPKDVSHLFVLPKNLCQLSVPVHRGGFRPRPFNLWVSTVIAVRMGGLAEAVKTVRTPSSFMTLVNADQMYPSALLAEKELECVLLMRKEGRLGEM | not soluble
7 | GPGSMSEYADCTEVAKKALEFRQQFYQLLDNPERRGDIVALYAPNTPLLCEWNGHALPDTASIAAYLGGLPRTNHKVDCVDAQPLPGNERADSFLMTVHGVVTYDDEHKREFFQRFVIRKVEERYYIMNDYYRWLSEKE | not soluble
8 | GPGSMSHVKAFDPAAQARCDPYYKRNHMGHVVCTLCDVCCSDDNNFIKHLAGKTHSLQLERLERSANREKRLAEEEELNKEAMRRAEQEKATRELLLQQTSAPHASSVTSFAPFGRPEFHYCTEHDPELYQTKVWLEFYFPQAVEGARPLHRWRSAREQEVEKPPNDDVVYLLVACEGYMTVGLKFPSKLPRTSSGLTSWGGYGNAGSDEEKGRYRCSWDPVKKLYELFFIIG | soluble
9 | GPGSMSKSRRDVNKVQIGYHRAENTETVSSPHTYAYSSGKSAPSTTKPDRPTVSNIRIASAVAGLPPSRFAANASVKREKNDEESESPTAAASSVSSSLLHGAASEARTTVDGFPWSTRRVERMSFEMQNVSPPIANLLRRVLTTEVPTLAFDRVLIEENDSPVLDELLSHRLGLVPVAGPVMKMHYITESNQASFSNLDPSRVLLFELDATGAKDAAVTPVYSGQLQWVPLPGQDKTAGAVAVACQAGREECAGAAGATDHSADEDDDAVFLVHPDILLTKLGPGQRIKLKAIAVKGFGAVHAKWSPVSACYYEMKTSVELCERLTGSAAEALIKSCPAGVFGYEGGQRGAAATVVAPEKCTLCRECLRSEDKGAEAAANKGDRVRVQKDKTHVLFHIESVGQLHPAQILRFGLRLFAERCRALAEMVQSTEVHVVDASAKSLEL | not soluble
10 | GPGSMSLWGGFSNPTSYSDSGLEKRLEFDFAAAVDVQTFAVEELEDVLAAAGQKLQHHFSAEGLLSLEMTQCIIILTPCKLVVTSASEVMLHQVITPTIALLTSKGVRVEWASYLRKNTTSPWCAESEMSDIMAQEYAELKAAFPAGKSFLTGPVDGHHCFNFVYDNVERIAGRKEEDVQVNVFLNDVAAGLEEVNKTTQRFHALQSGEYEVMRTFAGVPCISFETNAKAAVASPTRVQKLLDTFQPTHFTVAALQDRDADESALRCNFNAFTPYTLQNRTVNLFGEGYAFHQLLFARSAD | soluble
11 | GPGSMSNAKNGSETTYFTAIANRDVEALKALIAQNRNVNEVAQDPVLYHRTPLHICVWENFVEGAKLLLDAGADVNALDDLHDSPYLLSGAEGRQEIMEHIYKNAERTMRYGSQTSLRMKTSVPDHSIVNRFGGSALIPACERGHVEMVRLLLQKGVDVNHYNYYHWTGLLEAIELGGDDREHVDIVRLLIENGADVNQVDGAGKTPLYLARKRKYKRIAALLEAAGGHE | soluble
12 | GPGSMSSIPVDVLNAVTQCNEKVTAVEKEIEEFTNQVRIDFRSKIEPLFDKRHLELEKIEGFWGSAFVAVESPLMGLLNGTIDPKIVRALTDFRVKTSVRDGSICRCVSVTFRPNMFVKEGTFSRELDPSVNTLSLQPILWKPGTEKARTDSLFRFFSPECKDIEFLERALTEFDELFQNPLLAFE | not soluble
13 | GPGSMSVTIYGIKNCDTMKKARIWLEDHGIDYTFHDYKKEGLDAETLDRFLKTVPWEQLLNRAGTTFRKLPEDVRSNVDAASARELMLAQPSMVKRPVLERDGKLMVGFKPAQYEAYFKL | soluble
14 | GPGSMTGPFRYVITDMDGTLLSPDHFVSDYTRDTLKTLVHEHGVIPILATGRSYADVRIIADNLKAYIWCDGTAAPGARAPASPSRAPVIYLITSNGATVHNGVTHEVVFRTSIDPALAEKLLQLLPSDEEVVNTNAYQNDDWVCRIDWPKMMAVSKESGIRFIHVPHPLPSSSCALGSAAASPDAAARGIAIGDYTGISKIFFITDDAARLAALADEVHAIAKAHGGAPVSLTFSMSDCMDIMANGVTKGEALKRLFGAILPSRDGVDVVADALAHAIAFGDGLNDAEMLASVGKGCVMGNANPKLIAQHPELEVILTNAEDGVAKKLRSAFHLPL | soluble
